Results published in US10508143 (ALETA BIOTHERAPEUTICS, dated 2019).

Tests used:
[1] = molecular target: T1, Human BCMA Protein, Fc Tag (R&D Systems, Cat#193-BC-050) (human, UniProt Q02223 1-54); test: ELISA, plate-bound BCMA-Fc, anti-His-HRP
T1 construct: Bought; also called Human BCMA-Fc; not shown: Fc tag of the bought protein
T1 sequence (looked up): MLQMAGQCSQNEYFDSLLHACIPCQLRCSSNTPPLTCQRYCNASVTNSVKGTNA

[2] = molecular target: T2, Human Her2/ErbB2 Protein, Fc Tag (ACRO Biosystems, Cat# HE2-H5253) (human, UniProt P04626 23-652); test: ELISA: protein on FMC63-coated plate, Her2-Fc titrated, anti-hIgGFc-HRP
T2 construct: Bought; also called Her2-Fc; HER2-hFc; not shown: Fc tag of the bought protein

[3] = molecular target: T3, CD20 on stable transfectant line 293-CD20 (UniProt P11836 1-297); test: flow cytometry on 293-CD20 cells, 200 µl fusion protein, FMC63-PE
T3 construct: whole, on cells; also called CD20 expressing 293 cells
T3 sequence (looked up): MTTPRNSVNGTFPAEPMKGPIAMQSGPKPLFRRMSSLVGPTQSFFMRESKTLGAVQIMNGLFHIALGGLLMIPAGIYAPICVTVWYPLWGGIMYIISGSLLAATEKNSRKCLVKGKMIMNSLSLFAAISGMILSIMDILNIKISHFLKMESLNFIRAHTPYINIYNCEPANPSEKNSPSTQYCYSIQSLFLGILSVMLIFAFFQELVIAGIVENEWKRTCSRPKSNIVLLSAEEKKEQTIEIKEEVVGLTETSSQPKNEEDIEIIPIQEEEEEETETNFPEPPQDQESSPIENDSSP

[4] = molecular target: T3, CD20 on stable transfectant line …; test: flow cytometry on 293-CD20 cells, 200 µl fusion protein, anti-His-PE
[5] = molecular target: T3, CD20 on stable transfectant line …; test: flow cytometry on 293-CD20 cells, anti-His-PE or FMC63-PE
[6] = molecular target: T3, CD20 on stable transfectant line …; test: flow cytometry on 293-CD20 cells, FMC63-PE

B1: CD19-D1+2-C11D5.3 scFv (VL/VH) (scFv)
chain: PEEPLVVKVEEGDNAVLQCLKGTSDGPTQQLTWSRESPLKPFLKLSLGLPGLGIHMRPLAIWLFIFNVSQQMGGFYLCQPGPPSEKAWQPGWTVNVEGSGELFRWNVSDLGGLGCGLKNRSSEGPSSPSGKLMSPKLYVWAKDRPEIWEGEPPCLPPRDSLNQSLSQDLTMAPGSTLWLSCGVPPDSVSRGPLSWTHVHPKGPKSLLSLELKDDRPARDMWVMETGLLLPRATAQDAGKYYCHRGNLTMSFHLEITARPGGGGSGGGGSGGGGSGGGGSDIVLTQSPPSLAMSLGKRATISCRASESVTILGSHLIHWYQQKPGQPPTLLIQLASNVQTGVPARFSGSGSRTDFTLTIDPVEEDDVAVYYCLQSRTIPRTFGGGTKLEIKGSTSGSGKPGSGEGSTKGQIQLVQSGPELKKPGETVKISCKASGYTFTDYSINWVKRAPGKGLKWMGWINTETREPAYAYDFRGRFAFSLETSASTAYLQINNLKYEDTATYFCALDYSYAMDYWGQGTSVTVSSGGGGSGGGGSGGGGSHHHHHH
notes: His-tagged; also called construct #91; #91
B1: binds [1].

B2: purified CD19 protein control (other, UniProt P15391 20-291, looked up)
chain: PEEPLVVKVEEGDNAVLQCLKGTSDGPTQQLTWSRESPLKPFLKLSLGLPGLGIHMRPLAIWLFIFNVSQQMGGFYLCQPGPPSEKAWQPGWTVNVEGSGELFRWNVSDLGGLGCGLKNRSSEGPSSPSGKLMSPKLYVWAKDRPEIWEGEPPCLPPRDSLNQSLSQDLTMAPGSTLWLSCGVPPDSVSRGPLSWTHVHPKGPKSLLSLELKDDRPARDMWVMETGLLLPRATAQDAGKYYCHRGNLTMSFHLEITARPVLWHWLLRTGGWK
B2: no binding [2].

B3: CD19-D1+2-C11D5.3 scFv (VH/VL) (scFv)
chain: PEEPLVVKVEEGDNAVLQCLKGTSDGPTQQLTWSRESPLKPFLKLSLGLPGLGIHMRPLAIWLFIFNVSQQMGGFYLCQPGPPSEKAWQPGWTVNVEGSGELFRWNVSDLGGLGCGLKNRSSEGPSSPSGKLMSPKLYVWAKDRPEIWEGEPPCLPPRDSLNQSLSQDLTMAPGSTLWLSCGVPPDSVSRGPLSWTHVHPKGPKSLLSLELKDDRPARDMWVMETGLLLPRATAQDAGKYYCHRGNLTMSFHLEITARPGGGGSGGGGSGGGGSGGGGSQIQLVQSGPELKKPGETVKISCKASGYTFTDYSINWVKRAPGKGLKWMGWINTETREPAYAYDFRGRFAFSLETSASTAYLQINNLKYEDTATYFCALDYSYAMDYWGQGTSVTVSSGSTSGSGKPGSGEGSTKGDIVLTQSPPSLAMSLGKRATISCRASESVTILGSHLIHWYQQKPGQPPTLLIQLASNVQTGVPARFSGSGSRTDFTLTIDPVEEDDVAVYYCLQSRTIPRTFGGGTKLEIKGGGGSGGGGSGGGGSHHHHHH
notes: His-tagged; also called construct #92; #92
B3: binds [1].

B4: CD19-ECD-Leu16 scFv (VH/VL) (scFv)
chain: PEEPLVVKVEEGDNAVLQCLKGTSDGPTQQLTWSRESPLKPFLKLSLGLPGLGIHMRPLAIWLFIFNVSQQMGGFYLCQPGPPSEKAWQPGWTVNVEGSGELFRWNVSDLGGLGCGLKNRSSEGPSSPSGKLMSPKLYVWAKDRPEIWEGEPPCLPPRDSLNQSLSQDLTMAPGSTLWLSCGVPPDSVSRGPLSWTHVHPKGPKSLLSLELKDDRPARDMWVMETGLLLPRATAQDAGKYYCHRGNLTMSFHLEITARPVLWHWLLRTGGWKGGGGSGGGGSGGGGSGGGGSEVQLQQSGAELVKPGASVKMSCKASGYTFTSYNMHWVKQTPGQGLEWIGAIYPGNGDTSYNQKFKGKATLTADKSSSTAYMQLSSLTSEDSADYYCARSNYYGSSYWFFDVWGAGTTVTVSSGSTSGGGSGGGSGGGGSSDIVLTQSPAILSASPGEKVTMTCRASSSVNYMDWYQKKPGSSPKPWIYATSNLASGVPARFSGSGSGTSYSLTISRVEAEDAATYYCQQWSFNPPTFGGGTKLEIKHHHHHH
notes: C-terminal His tag; also called construct #63; #63
B4: binds [3].

B5: C11D5.3 scFv (VH/VL) (scFv)
scFv: QIQLVQSGPELKKPGETVKISCKASGYTFTDYSINWVKRAPGKGLKWMGWINTETREPAYAYDFRGRFAFSLETSASTAYLQINNLKYEDTATYFCALDYSYAMDYWGQGTSVTVSSGSTSGSGKPGSGEGSTKGDIVLTQSPPSLAMSLGKRATISCRASESVTILGSHLIHWYQQKPGQPPTLLIQLASNVQTGVPARFSGSGSRTDFTLTIDPVEEDDVAVYYCLQSRTIPRTFGGGTKLEIKGGGGSGGGGSGGGGSHHHHHH
notes: His-tagged; also called construct #90; #90
B5: binds [1].

B6: CD22-D123-Leu16 scFv (VH/VL) (scFv)
chain: DSSKWVFEHPETLYAWEGACVWIPCTYRALDGDLESFILFHNPEYNKNTSKFDGTRLYESTKDGKVPSEQKRVQFLGDKNKACTLSIHPVHLNDSGQLGLRMESKTEKWMERIHLNVSERPFPPHIQLPPEIQESQEVTLTCLLNFSCYGYPIQLQWLLEGVPMRQAAVTSTSLTIKSVFTRSELKFSPQWSHHGKIVTCQLQDADGKFLSNDTVQLNVKHTPKLEIKVTPSDAIVREGDSVTMTCEVSSSNPEYTTVSWLKDGTSLKKQNTFTLNLREVTKDQSGKYCCQVSNDVGPGRSEEVFLQVQYAPEGGGGSGGGGSGGGGSGGGGSEVQLQQSGAELVKPGASVKMSCKASGYTFTSYNMHWVKQTPGQGLEWIGAIYPGNGDTSYNQKFKGKATLTADKSSSTAYMQLSSLTSEDSADYYCARSNYYGSSYWFFDVWGAGTTVTVSSGSTSGGGSGGGSGGGGSSDIVLTQSPAILSASPGEKVTMTCRASSSVNYMDWYQKKPGSSPKPWIYATSNLASGVPARFSGSGSGTSYSLTISRVEAEDAATYYCQQWSFNPPTFGGGTKLEIKHHHHHH
notes: First three domains of CD22 (further mutated) fused to Leu16 scFv, C-terminal His tag; also called construct #65; #65
B6: binds [4].

B7: CD19-D1+2-Leu16 scFv (VH/VL) (scFv)
chain: PEEPLVVKVEEGDNAVLQCLKGTSDGPTQQLTWSRESPLKPFLKLSLGLPGLGIHMRPLAIWLFIFNVSQQMGGFYLCQPGPPSEKAWQPGWTVNVEGSGELFRWNVSDLGGLGCGLKNRSSEGPSSPSGKLMSPKLYVWAKDRPEIWEGEPPCLPPRDSLNQSLSQDLTMAPGSTLWLSCGVPPDSVSRGPLSWTHVHPKGPKSLLSLELKDDRPARDMWVMETGLLLPRATAQDAGKYYCHRGNLTMSFHLEITARPGGGGSGGGGSGGGGSGGGGSMAQVKLQESGAELVKPGASVKMSCKASGYTFTSYNMHWVKQTPGQGLEWIGAIYPGNGDTSYNQKFKGKATLTADKSSSTAYMQLSSLTSEDSADYYCARSNYYGSSYWFFDVWGQGTTVTVSSGGGGSGGGGSGGGGSDIELTQSPTILSASPGEKVTMTCRASSSVNYMDWYQKKPGSSPKPWIYATSNLASGVPARFSGSGSGTSYSLTISRVEAEDAATYYCQQWSFNPPTFGGGTKLEIKRAAAHHHHHH
notes: C-terminal His tag; also called construct #83; #83
B7: binds [5].

B8: CD19-D1+2-Leu16 scFv (VL/VH) (scFv)
chain: PEEPLVVKVEEGDNAVLQCLKGTSDGPTQQLTWSRESPLKPFLKLSLGLPGLGIHMRPLAIWLFIFNVSQQMGGFYLCQPGPPSEKAWQPGWTVNVEGSGELFRWNVSDLGGLGCGLKNRSSEGPSSPSGKLMSPKLYVWAKDRPEIWEGEPPCLPPRDSLNQSLSQDLTMAPGSTLWLSCGVPPDSVSRGPLSWTHVHPKGPKSLLSLELKDDRPARDMWVMETGLLLPRATAQDAGKYYCHRGNLTMSFHLEITARPGGGGSGGGGSGGGGSGGGGSDIELTQSPTILSASPGEKVTMTCRASSSVNYMDWYQKKPGSSPKPWIYATSNLASGVPARFSGSGSGTSYSLTISRVEAEDAATYYCQQWSFNPPTFGGGTKLEIKRGGGGSGGGGSGGGGSMAQVKLQESGAELVKPGASVKMSCKASGYTFTSYNMHWVKQTPGQGLEWIGAIYPGNGDTSYNQKFKGKATLTADKSSSTAYMQLSSLTSEDSADYYCARSNYYGSSYWFFDVWGQGTTVTVSSAAAHHHHHH
notes: C-terminal His tag; also called construct #85; #85
B8: no binding (tested: 200 µl fusion protein) [6].

B9: C11D5.3 scFv (VL/VH) (scFv)
scFv: DIVLTQSPPSLAMSLGKRATISCRASESVTILGSHLIHWYQQKPGQPPTLLIQLASNVQTGVPARFSGSGSRTDFTLTIDPVEEDDVAVYYCLQSRTIPRTFGGGTKLEIKGSTSGSGKPGSGEGSTKGQIQLVQSGPELKKPGETVKISCKASGYTFTDYSINWVKRAPGKGLKWMGWINTETREPAYAYDFRGRFAFSLETSASTAYLQINNLKYEDTATYFCALDYSYAMDYWGQGTSVTVSSGGGGSGGGGSGGGGSHHHHHH
notes: His-tagged; also called construct #89; #89
B9: binds [1].
